Assay results taken from patent US7670806B2, “ADP-ribosyl acceptor hydrolase 3 (ARH3) polypeptides and methods of use” (The United States of America as represented by the …, priority 2005, dated 2010).

What was measured:
ADP-ribose binding assay = conditions: 1 μM ARH3, 3 μM [14C]ADP-ribose, 30° C., 16 h
Experimental: ADP-ribose binding assay. [^14C]ADP-ribose was generated by incubation overnight at 30° C. of 80 μM (10 μCi) [adenine-U-^14C]NAD with 50 μl of RT6.2 solution (5 nmol/h NADase activity; gift from Dr. Sunhee Park, NHLBI, National Institutes of Health, Bethesda, Md.) in 250 μl of 50 mM potassium phosphate, pH 7.5, and purified by HPLC using Zorbax Sax column as described above. [^14C]ADP-ribose, eluted at 40 min, was stored at −20° C.
To assess protein binding, 1 μM human wild type or D77N/D78N mutant ARH3 was incubated (30° C., 16 h) with 3 μM [^14C]ADP-ribose in 50 mM potassium phosphate buffer, pH 7.5, without or with 10 mM MgCl2, and/or 5 mM DTT (total volume 100 μl). A sample (90 μl) was applied to a column (0.5×4 cm) of Affi-Gel boronate (100 mg, Bio-Rad) which was equilibrated with 0.1 M glycine, pH 9.0, containing 0.1 M NaCl, with or without 10 mM MgCl2, and/or 5 mM DTT, and eluted with five 1-ml portions of the same solution. The total eluate, containing ARH with bound ADP-ribose was collected for liquid scintillation counting.
After incubation of wild-type or mutant ARH3 (1 μM) with [^14C]ADP-ribose (3 μM) (30° C., 16 h) without or with 10 mM MgCl2 and/or 5 mM DTT (total volume 100 μl), unbound ADP-ribose was removed by binding to Affi-gel boronate (Bio-Rad), and ARH3 with ADP-ribose bound, was collected for radioassay. […]

[1] = Poly(ADP-ribose) hydrolysis (autoradiography, high resolution PAGE, HPLC); assay type: biochemical
Experimental: Poly(ADP-ribose) hydrolysis by autoradiography. [^32P]poly(ADP-ribose)PARP (500 ng of PARP with poly(ADP-ribose) was incubated (37° C., 2 h) with 2 μM ARH in 25 μl of 50 mM potassium phosphate buffer, pH 7.5, with or without 10 mM MgCl2 and/or 5 mM DTT. Reactions were stopped by adding 6 μl of 5× Laemmli buffer. Samples (20 μl) of proteins were separated by SDS-PAGE in 4-20% gels and transferred to nitrocellulose membranes that were exposed to X-ray film (Kodak) for 10 h.
Hydrolysis of poly(ADP-ribose) by PARG and ARH3. Purified [^32P] poly(ADP-ribose) (5.5×10^5 cpm, ˜300 nM ADP-ribose) was incubated for the indicated time at 37° C. in 25 μl of 50 mM potassium phosphate, pH 7.5, containing 10 mM MgCl2 and 5 mM DTT with enzyme or other additions as indicated and terminated by addition of 25 μl of 2× electrophoresis buffer (Invitrogen). [^32P]AMP was generated by incubation (37° C., 3 h) of 10 μM [^32P] NAD (10 μCi/reaction) with pyrophosphatase (40 units/mg from SIGMA, 1 mg/ml) in 25 μl of 50 mM KPO4, pH 7.5, and 10 mM MgCl2. [^32P] ADP-ribose was generated in a 25 μl mixture containing 50 mM KPO4, pH 7.5, 25 μg of activated CTA, 10 μM [^32P] NAD (10 μCi/reaction), 10 mM MgCl2, and 5 mM DTT, which was incubated at 30° C. overnight. [^32P] phosphoribosyl-AMP was generated by incubation (37° C., 3 h) of [^32P]poly(ADP-ribose) (5.5×10^5 cpm, ˜300 nM ADP-ribose) with Crotalus adamanteus phosphodiesterase (10 mU/reaction), 25 μl of 50 mM KPO4, pH 7.5, 10 mM MgCl2, and 5 mM DTT. Identities of AMP and ADP-ribose standards were confirmed by HPLC on C18 and SAX columns respectively.
High resolution Polyacrylamide Gel Electrophoresis (PAGE). Polyacrylamide (20%) gels (20×20×0.15 cm) containing polyacrylamide and bis(acrylamide), in a ratio of 19:1, 100 mM Tris-borate, pH 8.3, 2 mM EDTA, 4.4 mM ammonium persulfate, and 3.4 mM TEMED with electrophoresis carried out for 2 h at 400V with 50 mM Tris-borate, pH 8.3, 1 mM EDTA, before application of samples (15 μl) were used for analysis of poly(ADP-ribose) degradation. Subsequent electrophoresis at 400V was stopped when bromophenol blue (BPB) had moved 9 cm from the origin. Gels were exposed to X-ray films (Kodak).
HPLC analysis. HPLC, Hewlett-Packard series 1100 equipped with a diode-array spectrophotometric detector set at 254 nm, was used for separation of reaction products. For anion exchange perfusion chromatography, Zorbax SAX column (4.6×250 mm; DuPont, Wilmington Del.) was washed with 20 mM potassium phosphate, pH 4.5, for 30 min, followed by a linear gradient of 0-1M NaCl in the same buffer for 10 min (30-40 min), then same buffer with 1M NaCl for 10 min (40-50 min) at a flow rate of 1 ml/min. Nicotinamide was eluted at 3 min, NAD at 10 min, and ADP-ribose at 40 min. For reverse phase, Discovery C18 column (4.6×250 mm; SUPELCO, Bellefonte Pa.) was used. Samples were separated isocratically with 100 mM potassium phosphate, pH 6.0 containing 7% methanol at a same flow rate of 1 ml/min. ADP-ribose was eluted at 6 min, NAD at 8 min, nicotinamide 9 min.
Poly(ADP-ribose)PARP was used as substrate to assay potential poly(ADP-ribose) hydrolase activities of recombinant ARH1, 2 or 3. Products were identified by autoradiography and HPLC. Fractions (1 ml) were collected for liquid scintillation counting to quantify [^14C]ADP-ribose, which was eluted in fractions from 34 min to 43 min. Because ARH1 activity may require both DTT and Mg^2+, depending on species (Takada et al. (1993) J. Biol. Chem. 268:17837-17843; Moss et al. (1992) J. Biol. Chem. 267:10481-10488), these reactions were performed with or without 10 mM MgCl2, and/or 5 mM DTT. […] Degradation of [^32P]poly(ADP-ribose) by ARH3 was enhanced by 10 mM MgCl2 (FIG. 4A). Data were similar with mouse ARH3.
Samples of [^14C] ADP-ribosylated PARP (250 ng, 15,000 cpm, ˜850 nM ADP-ribose) were incubated at 37° C. (total volume, 100 μl) with human ARH3 as indicated. […]

B1: human ARH3: human ARH3 amino acid sequence SEQ ID NO: 2, synthesized as GST-fusion product in E. coli (protein, listed as Homo sapiens)
chain: MAAAAMAAAAGGGAGAARSLSRFRGCLAGALLGDCVGSFYEAHDTVDLTSVLRHVQSLEPDPGTPGSERTEALYYTDDTAMARALVQSLLAKEAFDEVDMAHRFAQEYKKDPDRGYGAGVVTVFKKLLNPKCRDVFEPARAQFNGKGSYGNGGAMRVAGISLAYSSVQDVQKFARLSAQLTHASSLGYNGAILQALAVHLALQGESSSEHFLKQLLGHMEDLEGDAQSVLDARELGMEERPYSSRLKKIGELLDQASVTREEVVSELGNGIAAFESVPTAIYCFLRCMEPDPEIPSAFNSLQRTLIYSISLGGDTDTIATMAGAIAGAYYGMDQVPESWQQSCEGYEETDILAQSLHRVFQKS
modifications: GST fusion
Q: For B1, which “[14C]ADP-ribose binding” value (ADP-ribose binding assay) is on record?
A: Its value is “similar”.

Q: What about the “Substrate remaining, [14C]poly(ADP-ribose)PARP” value ([1]; 40 nM hydrolase, 60 min, 37° C.) of the same molecule?
A: Its value is about 75%.

Q: What about the “Release of [14C]ADP-ribose from [14C]poly(ADP-ribose)PARP relative to wild-type ARH3” value ([1]; 50 nM human ARH3 (wild-type or mutant), ~2 μM ADP-ribose, HPLC C18) of the same molecule?
A: The value was 100%.

Q: And the “Poly(ADP-ribose) hydrolysis (in words)” value ([1]; [32P]poly(ADP-ribose) or poly(ADP-ribose)PARP, 37° C., autoradiography / PAGE / HPLC)?
A: Its value is “hydrolyzed”.
